Data taken from patent US20240392024A1 (SHANGHAI CELGEN BIO PHARMACEUTICAL, published 2024).
Values joined by “and” are separate entries in the source; they are usually repeats but may differ in a detail not shown here. Equal entries are not always repeated. Values belong to the binder of their own block, whether it stands above or below them.

What was measured:
[1] = target: T1, TNFR2-His (Sino Biological, 10417-H08H, NP_001057.1 Met1-Asp257, with multi-histidine tag expressed on … (human, UniProt P20333 23-257)); assay: ELISA, plate coated with TNFR2-His (first test)
T1 construct: range 1-257; Bought protein; also called recombinant human TNFR2 protein; TNFR2-His antigen; not shown: C-terminal multi-histidine tag
T1 sequence (looked up): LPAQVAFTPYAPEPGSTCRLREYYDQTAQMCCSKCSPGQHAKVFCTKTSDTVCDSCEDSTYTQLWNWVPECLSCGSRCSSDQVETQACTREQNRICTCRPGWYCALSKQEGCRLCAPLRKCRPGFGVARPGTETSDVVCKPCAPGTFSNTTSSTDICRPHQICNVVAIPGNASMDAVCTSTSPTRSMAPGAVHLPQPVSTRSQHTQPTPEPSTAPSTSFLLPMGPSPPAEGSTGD
How it was run: (§1)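 EC50 values come from antibody dilution series tested by ELISA. Plates were coated with recombinant human TNFR2 bearing a C-terminal His tag and blocked before the serially diluted antibodies were added. Binding was detected with an enzyme-labelled anti-IgG secondary antibody, TMB development and a microplate reader.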

[2] = target: T2, human TNFR2 on the cell membrane (human, UniProt P20333 23-461); assay: flow cytometry on CHO-TNFR2 cells
T2 construct: whole, on cells; One molecule for all cell formats; also called TNFR2-CHO cells; CHO-TNFR2
T2 sequence (looked up): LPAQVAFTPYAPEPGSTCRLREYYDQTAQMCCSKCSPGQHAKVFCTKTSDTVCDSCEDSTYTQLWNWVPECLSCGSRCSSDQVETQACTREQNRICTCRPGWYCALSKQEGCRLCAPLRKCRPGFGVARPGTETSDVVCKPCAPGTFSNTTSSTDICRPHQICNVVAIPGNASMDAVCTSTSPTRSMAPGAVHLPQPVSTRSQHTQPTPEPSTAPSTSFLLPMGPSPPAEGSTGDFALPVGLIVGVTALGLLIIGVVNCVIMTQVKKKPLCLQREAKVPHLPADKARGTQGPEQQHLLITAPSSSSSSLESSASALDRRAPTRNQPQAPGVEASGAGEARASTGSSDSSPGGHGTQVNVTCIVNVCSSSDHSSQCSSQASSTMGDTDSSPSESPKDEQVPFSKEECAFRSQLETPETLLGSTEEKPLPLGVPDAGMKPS
How it was run: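 CHO cells were transfected with a pcDNA3.4 vector carrying human TNFR2, taken through drug selection and sorted as single clones to give a line that stably overexpresses the receptor. These cells were placed in 96-deep-well plates, incubated with serially diluted antibodies, washed and then stained with a fluorescent anti-IgG secondary antibody. Flow cytometry was run on a Beckman CytoFLEX, and EC50 values were derived from the dilution series.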

[3] = target: T1, TNFR2-His (Sino Biological, 10417-H08H, …); assay: BLI, antibody captured on AHC probe, TNFR2 in solution
How it was run: (§2)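 Bio-layer interferometry on an Octet in Basic Kinetics mode. Antibodies at 50 nM in Q buffer (10 mM PBS pH 7.4, 0.02% Tween 20, 0.2% BSA) were held on antibody-capture sensors. The sensors were then placed in recombinant human TNFR2 diluted 2-fold in Q buffer from a top concentration of 100 nM. Kon, koff and Kd come from these kinetic association measurements.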

[4] = target: T1, TNFR2-His (Sino Biological, 10417-H08H, …); assay: ELISA, coated TNFR2-His
How it was run: as §1

[5] = target: T1, TNFR2-His (Sino Biological, 10417-H08H, …); assay: ELISA, plate coated with TNFR2-His
How it was run: as §1

[6] = target: T1, TNFR2-His (Sino Biological, 10417-H08H, …); assay: BLI, antibody captured on AHC probe, TNFR2-His in solution
How it was run: as §2

EC50 [2]: 0.149 µg/mL and 1 nM | EC50 [1]: 0.0754 µg/mL and 0.505 nM | Kd [3]: 1.71 nM | koff [3]: 0.00197 s⁻¹ | kon [3]: 1.15e+06 M⁻¹ s⁻¹
B3: 12E12huVH5 + huVL2(P07286) (antibody, V domains shown)
VH: EVQLVQSGAEVKKPGATVKISCKVSGFNIKDFYIHWVQQAPGKGLEWIGRVDPEDGNTEYAEKFQGRVTITADTSTDTAYMELSSLRSEDTAVYYCSTWDGFSYFDYWGQGTTVTVSS
VL: QAVVTQEPSLTVSPGGTVTLTCRSSTGPVTTNNYANWVQQKPGQAFRGLIGGTNDRAPGVPARFSGSLLGGKAALTLSGAQPEDEAEYYCALWYRNHWVFGGGTKLTVL
notes: Humanized 12E12

EC50 [1]: 0.049 µg/mL and 0.328 nM
B5: 12E12huVH4+huVL2(P07284) (antibody, V domains shown)
VH: EVQLVQSGAEVKKPGATVKISCKVSGFNIKDFYIHWVQQAPGKGLEWIGRVDPEDGNTEYAPNFQDRVTITADTSTDTAYMELSSLRSEDTAVYYCSTWDGFSYFDYWGQGTTVTVSS
VL: QAVVTQEPSLTVSPGGTVTLTCRSSTGPVTTNNYANWVQQKPGQAFRGLIGGTNDRAPGVPARFSGSLLGGKAALTLSGAQPEDEAEYYCALWYRNHWVFGGGTKLTVL

EC50 [1]: 0.0596 µg/mL and 0.399 nM
B6: 12E12huVH3+huVL1(P07281) (antibody, V domains shown)
VH: QVQLVQSGAEVKKPGASVKVSCKVSGFNIKDFYIHWVRQAPGKGLEWMGRVDPEDGNTEYAQKFQGRVTMTTDTSTDTAYMELSSLRSEDTAVYYCSTWDGFSYFDYWGQGTTVTVSS
VL: QAVVTQEPSLTVSPGGTVTLTCRSSTGPVTTNNYANWVQQKPGQAFRGLIGGTNDRAPGVPARFSGSLIGDKTALTLSGVQPEDEAEYYCALWYRNHWVFGGGTKLTVL

EC50 [1]: 0.0672 µg/mL and 0.45 nM
B9: 12E12huVH2+huVL4(P07289) (antibody, V domains shown)
VH: QVQLVQSGAEVKKPGASVKVSCKVSGFNIKDFYIHWVRQAPGQGLEWIGRVDPEDGNTEYAPNFQDRATMTTDTSTSTAYLELSSLRSEDTAVYYCSTWDGFSYFDYWGQGTTVTVSS
VL: EAVVTQSPATLSLSPGERATLSCRSSTGPVTTNNYANWVQQKPGQAFRGLIGGTNDRAPGIPARFSGSGSGTDTTLTISSLQPEDFAVYYCALWYRNHWVFGGGTKLEIK

EC50 [2]: 0.0329 µg/mL and 0.221 nM | EC50 [1]: 0.0533 µg/mL and 0.357 nM | Kd [3]: 3.14 nM | koff [3]: 0.0034 s⁻¹ | kon [3]: 1.08e+06 M⁻¹ s⁻¹
B10: 12E12huVH5 + huVL4(P07292) (antibody, V domains shown)
VH: EVQLVQSGAEVKKPGATVKISCKVSGFNIKDFYIHWVQQAPGKGLEWIGRVDPEDGNTEYAEKFQGRVTITADTSTDTAYMELSSLRSEDTAVYYCSTWDGFSYFDYWGQGTTVTVSS
VL: EAVVTQSPATLSLSPGERATLSCRSSTGPVTTNNYANWVQQKPGQAFRGLIGGTNDRAPGIPARFSGSGSGTDTTLTISSLQPEDFAVYYCALWYRNHWVFGGGTKLEIK
notes: Humanized 12E12

Second part, the binder before the results:

B1: 12E12huVH1+huVL1(P07277) (antibody, V domains shown)
VH: EVQLVQSGAEVKKPGASVKLSCTVSGFNIKDFYIHWVRQAPGQGLEWIGRVDPEDGNTEYAPNFQDRATMTTDTSTNTAYLELSSLRSEDTAVYYCSTWDGFSYFDYWGQGTTVTVSS
VL: QAVVTQEPSLTVSPGGTVTLTCRSSTGPVTTNNYANWVQQKPGQAFRGLIGGTNDRAPGVPARFSGSLIGDKTALTLSGVQPEDEAEYYCALWYRNHWVFGGGTKLTVL
EC50 [1]: 0.0606 µg/mL and 0.406 nM

B2: 12E12huVH3 + huVL2(P07282) (antibody, V domains shown)
VH: QVQLVQSGAEVKKPGASVKVSCKVSGFNIKDFYIHWVRQAPGKGLEWMGRVDPEDGNTEYAQKFQGRVTMTTDTSTDTAYMELSSLRSEDTAVYYCSTWDGFSYFDYWGQGTTVTVSS
VL: QAVVTQEPSLTVSPGGTVTLTCRSSTGPVTTNNYANWVQQKPGQAFRGLIGGTNDRAPGVPARFSGSLLGGKAALTLSGAQPEDEAEYYCALWYRNHWVFGGGTKLTVL
notes: Humanized 12E12
EC50 [2]: 0.0203 µg/mL and 0.136 nM | EC50 [1]: 0.045 µg/mL and 0.301 nM | Kd [3]: 6.38 nM | koff [3]: 0.00487 s⁻¹ | kon [3]: 764000 M⁻¹ s⁻¹

B4: 12E12huVH2+huVL1(P07278) (antibody, V domains shown)
VH: QVQLVQSGAEVKKPGASVKVSCKVSGFNIKDFYIHWVRQAPGQGLEWIGRVDPEDGNTEYAPNFQDRATMTTDTSTSTAYLELSSLRSEDTAVYYCSTWDGFSYFDYWGQGTTVTVSS
VL: QAVVTQEPSLTVSPGGTVTLTCRSSTGPVTTNNYANWVQQKPGQAFRGLIGGTNDRAPGVPARFSGSLIGDKTALTLSGVQPEDEAEYYCALWYRNHWVFGGGTKLTVL
EC50 [1]: 0.0614 µg/mL and 0.411 nM

B7: 12E12huVH2+huVL2(P07279) (antibody, V domains shown)
VH: QVQLVQSGAEVKKPGASVKVSCKVSGFNIKDFYIHWVRQAPGQGLEWIGRVDPEDGNTEYAPNFQDRATMTTDTSTSTAYLELSSLRSEDTAVYYCSTWDGFSYFDYWGQGTTVTVSS
VL: QAVVTQEPSLTVSPGGTVTLTCRSSTGPVTTNNYANWVQQKPGQAFRGLIGGTNDRAPGVPARFSGSLLGGKAALTLSGAQPEDEAEYYCALWYRNHWVFGGGTKLTVL
EC50 [1]: 0.0687 µg/mL and 0.46 nM

B8: 12E12huVH3 + huVL4(P07290) (antibody, V domains shown)
VH: QVQLVQSGAEVKKPGASVKVSCKVSGFNIKDFYIHWVRQAPGKGLEWMGRVDPEDGNTEYAQKFQGRVTMTTDTSTDTAYMELSSLRSEDTAVYYCSTWDGFSYFDYWGQGTTVTVSS
VL: EAVVTQSPATLSLSPGERATLSCRSSTGPVTTNNYANWVQQKPGQAFRGLIGGTNDRAPGIPARFSGSGSGTDTTLTISSLQPEDFAVYYCALWYRNHWVFGGGTKLEIK
notes: Humanized 12E12
EC50 [2]: 0.0367 µg/mL and 0.246 nM | EC50 [1]: 0.059 µg/mL and 0.395 nM | Kd [3]: 5.03 nM | koff [3]: 0.00407 s⁻¹ | kon [3]: 810000 M⁻¹ s⁻¹

B11: 12E12huVH1+huVL4(P07288) (antibody, V domains shown)
VH: EVQLVQSGAEVKKPGASVKLSCTVSGFNIKDFYIHWVRQAPGQGLEWIGRVDPEDGNTEYAPNFQDRATMTTDTSTNTAYLELSSLRSEDTAVYYCSTWDGFSYFDYWGQGTTVTVSS
VL: EAVVTQSPATLSLSPGERATLSCRSSTGPVTTNNYANWVQQKPGQAFRGLIGGTNDRAPGIPARFSGSGSGTDTTLTISSLQPEDFAVYYCALWYRNHWVFGGGTKLEIK
EC50 [1]: 0.0739 µg/mL and 0.495 nM

B12: 11G2huVH1 + huVL3(P07271) (antibody, V domains shown)
VH: QVQLVQSGAEVKKPGASVKLSCKASGYTFITYDINWVRQAPGQGLEWIGWIYPRDGNTQFNENFKGKATMTVDESTSTAYMEVRSLRSDDTAVYYCARGDRDYGYFDVWGQGTTVTVSS
VL: DIQMTQSPSSLSASVGDRVTITCQASQDISNYLNWYQQKPGKAPKLLIYFKSKLETGVPSRFSGSGSGTDFTFTISSLQPEDIATYYCQQGNTLPLTFGGGTKLEIK
notes: Humanized 11G2
EC50 [4]: 0.479 nM | EC50 [5]: 0.0715 µg/mL | Kd [6]: 8.4 nM | koff [6]: 0.00251 s⁻¹ | kon [6]: 299000 M⁻¹ s⁻¹

B13: 11G2huVH2 + huVL3(P07272) (antibody, V domains shown)
VH: QVQLVQSGAEVKKPGASVKVSCKASGYTFITYDINWVRQAPGQGLEWIGWIYPRDGNTQFNENFKGRVTMTTDTSTSTAYMELRSLRSDDTAVYYCARGDRDYGYFDVWGQGTTVTVSS
VL: DIQMTQSPSSLSASVGDRVTITCQASQDISNYLNWYQQKPGKAPKLLIYFKSKLETGVPSRFSGSGSGTDFTFTISSLQPEDIATYYCQQGNTLPLTFGGGTKLEIK
notes: Humanized 11G2
EC50 [4]: 0.576 nM | EC50 [5]: 0.0859 µg/mL | Kd [6]: 10.6 nM | koff [6]: 0.00293 s⁻¹ | kon [6]: 276000 M⁻¹ s⁻¹

B14: 11G2huVH3 + huVL3(P07273) (antibody, V domains shown)
VH: QVQLVQSGAEVKKPGASVKVSCKASGYTFITYDINWVRQATGQGLEWIGWIYPRDGNTQFNENFQGRVTMTRNTSISTAYMELSSLRSEDTAVYYCARGDRDYGYFDVWGQGTTVTVSS
VL: DIQMTQSPSSLSASVGDRVTITCQASQDISNYLNWYQQKPGKAPKLLIYFKSKLETGVPSRFSGSGSGTDFTFTISSLQPEDIATYYCQQGNTLPLTFGGGTKLEIK
notes: Humanized 11G2
EC50 [4]: 0.521 nM | EC50 [5]: 0.0778 µg/mL | Kd [6]: 10.2 nM | koff [6]: 0.00255 s⁻¹ | kon [6]: 249000 M⁻¹ s⁻¹
